{
  "source": "paper PMC12554172",
  "about": "(2025)",
  "parents": {"B1": {"name": "FLAG-tagged FBXO44 FBA domain (FBXO44^FBA) [human] / RGS2^5–16 peptide (RGS2 degron, Met^5–Met^16) [not stated] (parent complex)", "chain 1": "FYFLRSLHRNLLHNPCAEEGFEFWSLDVNGGDEWKVEDLSRDQRKEFPNDQVKKYFVTSYYTCLKSQVVDLKAEGYWEELMDTTRPDIEVKDWFAARPDCGSKYQLCVQLLSSAHAPLGTFQPDPATIQQKSDAKWREVSHTFSNYPPGVRYIWFQHGGVDTHYWAGWYGPRVTNSSITIGP", "chain 2": "MFLAVQHDCRPM"}},
  "data": [
    {"variants_of": "B1", "test": "peptide microarray (PEPperPRINT), α-FLAG fluorescence; three independent experiments with three technical replicates each; parent: 100; read off a plot", "units": {"percent of parent": "% Parent"}, "values": [
      {"variant": "chain 2 R10H", "percent of parent": "~75"},
      {"variant": "chain 2 R10S", "percent of parent": "~85"},
      {"variant": "chain 2 R10T", "percent of parent": "~80"},
      {"variant": "chain 2 R10W", "percent of parent": "~120"},
      {"variant": "chain 2 R10A", "percent of parent": "~72"},
      {"variant": "chain 2 R10M", "percent of parent": "~88"},
      {"variant": "chain 2 R10Q", "percent of parent": "~80"},
      {"variant": "chain 2 R10V", "percent of parent": "~85"},
      {"variant": "chain 2 R10I", "percent of parent": "~78"},
      {"variant": "chain 2 R10F", "percent of parent": "~95"},
      {"variant": "chain 2 R10Y", "percent of parent": "~120"},
      {"variant": "chain 2 R10G", "percent of parent": "~78"},
      {"variant": "chain 2 R10E", "percent of parent": "~110"},
      {"variant": "chain 2 R10C", "percent of parent": "~110"},
      {"variant": "chain 2 R10K", "percent of parent": "~80"},
      {"variant": "chain 2 R10N", "percent of parent": "~82"},
      {"variant": "chain 2 R10P", "percent of parent": "~80"},
      {"variant": "chain 2 R10L", "percent of parent": "~82"},
      {"variant": "chain 2 R10D", "percent of parent": "~110"}
    ]},
    {"variants_of": "B1", "test": "peptide microarray (PEPperPRINT), α-FLAG fluorescence; three independent experiments with three technical replicates each; parent: 100; read off a plot", "remark": "another data set of the same source", "units": {"percent of parent": "% Parent Peptide"}, "values": [
      {"variant": "chain 2 P11K", "percent of parent": "~150"},
      {"variant": "chain 2 C9R", "percent of parent": "~130"},
      {"variant": "chain 2 M12R", "percent of parent": "~200"},
      {"variant": "chain 2 D8K", "percent of parent": "~220"},
      {"variant": "chain 2 D8R", "percent of parent": "~280"},
      {"variant": "chain 2 P11R", "percent of parent": "~260"},
      {"variant": "chain 2 H7R", "percent of parent": "~140"}
    ]},
    {"variants_of": "B1", "test": "peptide microarray (PEPperPRINT), α-FLAG fluorescence; three independent experiments with three technical replicates each; parent: 100; read off a plot", "remark": "another data set of the same source", "units": {"percent of parent": "% Parent"}, "values": [
      {"variant": "chain 2 P11K", "percent of parent": "~150"},
      {"variant": "chain 2 P11R", "percent of parent": "~260"},
      {"variant": "chain 2 P11M", "percent of parent": "~100"},
      {"variant": "chain 2 P11S", "percent of parent": "~100"},
      {"variant": "chain 2 P11G", "percent of parent": "~68"},
      {"variant": "chain 2 P11Q", "percent of parent": "~90"},
      {"variant": "chain 2 P11H", "percent of parent": "~85"},
      {"variant": "chain 2 P11A", "percent of parent": "~72"},
      {"variant": "chain 2 P11Y", "percent of parent": "~110"},
      {"variant": "chain 2 P11T", "percent of parent": "~85"},
      {"variant": "chain 2 P11F", "percent of parent": "~100"},
      {"variant": "chain 2 P11E", "percent of parent": "~88"},
      {"variant": "chain 2 P11D", "percent of parent": "~130"},
      {"variant": "chain 2 P11V", "percent of parent": "~85"},
      {"variant": "chain 2 P11C", "percent of parent": "~120"},
      {"variant": "chain 2 P11L", "percent of parent": "~82"},
      {"variant": "chain 2 P11W", "percent of parent": "~110"},
      {"variant": "chain 2 P11N", "percent of parent": "~85"},
      {"variant": "chain 2 P11I", "percent of parent": "~88"}
    ]},
    {"variants_of": "B1", "test": "peptide microarray (PEPperPRINT), α-FLAG fluorescence; three independent experiments with three technical replicates each; parent: 100; read off a plot", "remark": "another data set of the same source", "units": {"percent of parent": "% Parent"}, "values": [
      {"variant": "chain 2 C9R", "percent of parent": "~130"},
      {"variant": "chain 2 C9P", "percent of parent": "~15"},
      {"variant": "chain 2 C9H", "percent of parent": "~17"},
      {"variant": "chain 2 C9A", "percent of parent": "~25"},
      {"variant": "chain 2 C9V", "percent of parent": "~13"},
      {"variant": "chain 2 C9W", "percent of parent": "~50"},
      {"variant": "chain 2 C9G", "percent of parent": "~13"},
      {"variant": "chain 2 C9Q", "percent of parent": "~25"},
      {"variant": "chain 2 C9L", "percent of parent": "~13"},
      {"variant": "chain 2 C9E", "percent of parent": "~15"},
      {"variant": "chain 2 C9F", "percent of parent": "~20"},
      {"variant": "chain 2 C9T", "percent of parent": "~15"},
      {"variant": "chain 2 C9Y", "percent of parent": "~55"},
      {"variant": "chain 2 C9N", "percent of parent": "~15"},
      {"variant": "chain 2 C9I", "percent of parent": "~15"},
      {"variant": "chain 2 C9D", "percent of parent": "~28"},
      {"variant": "chain 2 C9K", "percent of parent": "~47"},
      {"variant": "chain 2 C9S", "percent of parent": "~13"},
      {"variant": "chain 2 C9M", "percent of parent": "~13"}
    ]},
    {"variants_of": "B1", "test": "peptide microarray (PEPperPRINT), α-FLAG fluorescence; three independent experiments with three technical replicates each; parent: 100; read off a plot", "remark": "another data set of the same source", "units": {"percent of parent": "% Parent"}, "values": [
      {"variant": "chain 2 M12R", "percent of parent": "~200"},
      {"variant": "chain 2 M12H", "percent of parent": "~90"},
      {"variant": "chain 2 M12T", "percent of parent": "~85"},
      {"variant": "chain 2 M12N", "percent of parent": "~87"},
      {"variant": "chain 2 M12E", "percent of parent": "~110"},
      {"variant": "chain 2 M12A", "percent of parent": "~67"},
      {"variant": "chain 2 M12K", "percent of parent": "~140"},
      {"variant": "chain 2 M12C", "percent of parent": "~130"},
      {"variant": "chain 2 M12G", "percent of parent": "~72"},
      {"variant": "chain 2 M12F", "percent of parent": "~100"},
      {"variant": "chain 2 M12D", "percent of parent": "~130"},
      {"variant": "chain 2 M12Y", "percent of parent": "~120"},
      {"variant": "chain 2 M12I", "percent of parent": "~85"},
      {"variant": "chain 2 M12S", "percent of parent": "~92"},
      {"variant": "chain 2 M12Q", "percent of parent": "~88"},
      {"variant": "chain 2 M12V", "percent of parent": "~90"},
      {"variant": "chain 2 M12P", "percent of parent": "~90"},
      {"variant": "chain 2 M12W", "percent of parent": "~110"},
      {"variant": "chain 2 M12L", "percent of parent": "~90"}
    ]},
    {"variants_of": "B1", "test": "peptide microarray (PEPperPRINT), α-FLAG fluorescence; three independent experiments with three technical replicates each; parent: 100; read off a plot", "remark": "another data set of the same source", "units": {"percent of parent": "% Parent"}, "values": [
      {"variant": "chain 2 D8K", "percent of parent": "~220"},
      {"variant": "chain 2 D8R", "percent of parent": "~280"},
      {"variant": "chain 2 D8W", "percent of parent": "~150"},
      {"variant": "chain 2 D8F", "percent of parent": "~130"},
      {"variant": "chain 2 D8Y", "percent of parent": "~130"},
      {"variant": "chain 2 D8V", "percent of parent": "~140"},
      {"variant": "chain 2 D8E", "percent of parent": "~100"},
      {"variant": "chain 2 D8L", "percent of parent": "~130"},
      {"variant": "chain 2 D8C", "percent of parent": "~140"},
      {"variant": "chain 2 D8S", "percent of parent": "~160"},
      {"variant": "chain 2 D8Q", "percent of parent": "~160"},
      {"variant": "chain 2 D8N", "percent of parent": "~150"},
      {"variant": "chain 2 D8A", "percent of parent": "~120"},
      {"variant": "chain 2 D8I", "percent of parent": "~140"},
      {"variant": "chain 2 D8P", "percent of parent": "~160"},
      {"variant": "chain 2 D8M", "percent of parent": "~140"},
      {"variant": "chain 2 D8H", "percent of parent": "~130"},
      {"variant": "chain 2 D8T", "percent of parent": "~130"},
      {"variant": "chain 2 D8G", "percent of parent": "~130"}
    ]},
    {"variants_of": "B1", "test": "peptide microarray (PEPperPRINT), α-FLAG fluorescence; three independent experiments with three technical replicates each; parent: 100; read off a plot", "remark": "another data set of the same source", "units": {"percent of parent": "% Parent"}, "values": [
      {"variant": "chain 2 H7R", "percent of parent": "~140"},
      {"variant": "chain 2 H7F", "percent of parent": "~100"},
      {"variant": "chain 2 H7L", "percent of parent": "~100"},
      {"variant": "chain 2 H7C", "percent of parent": "~120"},
      {"variant": "chain 2 H7A", "percent of parent": "~95"},
      {"variant": "chain 2 H7K", "percent of parent": "~120"},
      {"variant": "chain 2 H7D", "percent of parent": "~100"},
      {"variant": "chain 2 H7S", "percent of parent": "~100"},
      {"variant": "chain 2 H7I", "percent of parent": "~100"},
      {"variant": "chain 2 H7Q", "percent of parent": "~110"},
      {"variant": "chain 2 H7Y", "percent of parent": "~110"},
      {"variant": "chain 2 H7W", "percent of parent": "~110"},
      {"variant": "chain 2 H7M", "percent of parent": "~95"},
      {"variant": "chain 2 H7N", "percent of parent": "~100"},
      {"variant": "chain 2 H7G", "percent of parent": "~90"},
      {"variant": "chain 2 H7T", "percent of parent": "~95"},
      {"variant": "chain 2 H7E", "percent of parent": "~95"},
      {"variant": "chain 2 H7V", "percent of parent": "~100"},
      {"variant": "chain 2 H7P", "percent of parent": "~110"}
    ]}
  ]
}
